Measurements as given in PMC10784468 (Nature Communications, 2024).
Positions of bridges follow the written chain, without caps; N, C: chain ends. Residues, ends and D or L forms follow the SMILES beside them. *: point of attachment. X1 = O=C(O)c1ccc(-c2c3nc(c(-c4ccc(C(=O)O)cc4)c4ccc([nH]4)c(-c4ccc(C(=O)*)cc4)c4nc(c(-c5ccc(C(=O)O)cc5)c5ccc2[nH]5)C=C4)C=C3)cc1; X2 = O=C(O)C/C(=C/C(=O)*)C(=O)O

Key:
[1] = Hydrolysis of the peptide-porphyrin conjugates at pH 7.4 and 6.5 (dialysis, HPLC); assay type: physicochemical; settings: 37 °C, dialysis MWCO 1000 Da, released CAA by HPLC, mean of n = 3
Protocol: In vitro hydrolysis analysis of the peptide-porphyrin conjugates was studied in pH values of 7.4 and 6.5 solutions. 20 mg of peptide-porphyrin conjugate was dissolved in 2 mL pH 7.4 buffer solution, which was then transferred into a dialysis bag (MWCO: 1000 Da) and immersed in 25 mL of different pH buffer solutions at 37 °C with continuous shaking respectively. At fixed time intervals (20 min, 40 min, 1 h, 2 h and 4 h), […] chromatography (HPLC, WATERS Alliance HPLC e2489), and an equal volume of fresh buffer solution was replaced to the system. In order to determine the CAA concentration according to the peak area of the CAA, a standard curve of the CAA was plotted, with the peak area as a function of the concentration. […]

Particle size by DLS = assay type: physicochemical
Protocol: Nano-ZS 3600 (Malvern Instruments, UK) was used to measure the size distribution of the peptide-porphyrin conjugate solutions. The conjugate solutions (40 μM) were incubated at pH 7.4 or pH 6.5 before measurements. An average value was determined by three repeated measurements at 25 °C for each sample. Besides, transmission electron microscopy (TEM, Tecnai G2 20 S-TWIN) was conducted to observe the morphology and diameters of conjugates in aqueous solution, The conjugates (50 μL, 40 μM) were kept in PB solution at pH 7.4 or pH 6.5, which were dropped on copper meshes. After 5 min, unnecessary liquid was removed and the uranyl acetate solution (10 μL) was dropped on this copper mesh to stain the samples for 10 min. Finally, the copper meshes were washed with deionized water, and dried at room temperature for observation.

GPX4 protein = assay: Microscale Thermophoresis (MST) ligand binding; settings: labelled GPX4
Protocol: Initially, GPX4 was labeled using Protein Labeling Kit RED-NHS according to the manufacturer’s instructions to investigate the binding affinity of Gi-F-CAA, Gi-F and NGi-F-CAA with GPX4 protein. Afterward, the labelled GPX4 protein was incubated with series of Gi-F-CAA, Gi-F and NGi-F-CAA concentration gradients. Finally, the prepared samples were loaded into silica capillaries and measured with Monolish NT.115. Apparent Kd represented the affinity of assemblies rather than a single molecule. Bovine serum albumin (BSA) was used as control for calculating the apparent binding affinity between Gi-F (nanoparticle) to GPX4 protein. Briefly, as the diameter of nanoparticle is proportional to the molecular weight, according to the reported bovine serum albumin (BSA) protein size and molecular weight (7.2 nm, 66.43 KDa), the molecular weight of Gi-F nanoparticle with an average 78 nm size can be calculated to be […]. The monomer amount Gi-F nanoparticle was calculated as […].

EJ cells = assay: Intracellular Fe2+ ions detection; assay type: cell-based
Protocol: Initially, EJ cells (5 × 10^5) were cultured in confocal dish with a CO2 incubator overnight at 37 °C. […] Afterwards, EJ cells were washed with PBS for 3 times and replaced with culture mediums.

GPX4 = molecular target: T1, GPX4 (Homo sapiens, UniProt P36969); assay: Intracellular GPX4 activity detection; assay type: cell-based; design: endogenous in cells; host or cells: EJ bladder cancer cells
T1 sequence (P36969 1-197): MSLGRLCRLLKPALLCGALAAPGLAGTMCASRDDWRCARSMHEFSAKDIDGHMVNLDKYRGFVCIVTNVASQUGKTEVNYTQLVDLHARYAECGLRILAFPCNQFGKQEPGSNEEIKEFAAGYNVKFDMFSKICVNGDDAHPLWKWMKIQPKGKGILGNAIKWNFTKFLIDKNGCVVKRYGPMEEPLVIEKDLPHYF
Protocol: Initially, EJ cells (5 × 10^5) were cultured in 6-well plate with a CO2 incubator overnight at 37 °C. […] Next, EJ cells were collected and washed with PBS for 3 times. Afterwards, the cell lysates were collected by centrifugation at 5000 rpm for 10 min at 4 °C after ultrasonic lysis in an ice bath. Finally, the GPX4 activity were measured with a GPX Assay Kit based on the manufacturer’s instructions.

CC(C)C[C@H](NC(=O)c1ccc(-c2c3nc(c(-c4ccc(C(=O)O)cc4)c4ccc([nH]4)c(-c4ccc(C(=O)O)cc4)c4nc(c(-c5ccc(C(=O)O)cc5)c5ccc2[nH]5)C=C4)C=C3)cc1)C(=O)N[C@@H](CCCCNC(=O)/C=C(/CC(=O)O)C(=O)O)C(=O)N[C@@H](CC(C)C)C(=O)N[C@@H](CCCCN)C(=O)N[C@@H](CC(C)C)C(=O)N[C@@H](CCCCNC(=O)/C=C(/CC(=O)O)C(=O)O)C(=O)NCC(=O)N[C@@H](C)C(=O)N[C@H]1CSSC[C@@H](C(=O)N2CCC[C@H]2C(=O)N[C@H](C(=O)O)C(C)C)NC(=O)[C@@H]2CCCN2C(=O)[C@H](Cc2ccc(O)cc2)NC(=O)[C@H](CC(C)C)NC(=O)[C@@H]2CCCN2C(=O)[C@H](CC(C)C)NC(=O)[C@H](Cc2c[nH]c3ccccc23)NC(=O)[C@H](CC(N)=O)NC1=O [Gi-F-CAA] (X1-LK(X2)LKLK(X2)GACNWLPLYPCPV-OH; disulfide 9-17; C-terminus assumed)
Hydrolysis of CAA (%) ([1]; pH 6.5 buffer, 0 min): 0%
Hydrolysis of CAA (%) ([1]; pH 6.5 buffer, 20 min): 17.6%
Hydrolysis of CAA (%) ([1]; pH 6.5 buffer, 40 min): 43.7%
Hydrolysis of CAA (%) ([1]; pH 6.5 buffer, 60 min): 53.6%
Hydrolysis of CAA (%) ([1]; pH 6.5 buffer, 120 min): 56.9%
Hydrolysis of CAA (%) ([1]; pH 6.5 buffer, 240 min): 57.5%
Hydrolysis of CAA (%) ([1]; pH 7.4 buffer, 0 min): 0%
Hydrolysis of CAA (%) ([1]; pH 7.4 buffer, 20 min): 3.1%
Hydrolysis of CAA (%) ([1]; pH 7.4 buffer, 40 min): 10.9%
Hydrolysis of CAA (%) ([1]; pH 7.4 buffer, 60 min): 12.1%
Hydrolysis of CAA (%) ([1]; pH 7.4 buffer, 120 min): 13.1%
Hydrolysis of CAA (%) ([1]; pH 7.4 buffer, 240 min): 14.3%
particle size (DLS) after incubation at pH 6.5 for 1 h (Particle size by DLS; 40 μM, PBS 0.01 M, pH 6.5, 1 h, 25 °C): 78 ± 11 nm
particle size (DLS) before incubation (Particle size by DLS; 40 μM, PBS 0.01 M, pH 6.5, before incubation, 25 °C): 13 ± 3 nm
particle size change (DLS) at pH 7.4 (Particle size by DLS; 40 μM, PBS 0.01 M, pH 7.4): no obvious changes
size (DLS) at pH 7.4 (Particle size by DLS; pH 7.4, peer review response): about 11 ± 2 nm
Fnorm (‰), MST original data (GPX4 protein; ligand concentration 3.05176e-8 (μM)): 933.824 ‰
Fnorm (‰), MST original data (GPX4 protein; ligand concentration 6.10352e-8 (μM)): 930.278 ‰
Fnorm (‰), MST original data (GPX4 protein; ligand concentration 1.2207e-7 (μM)): 933.334 ‰
Fnorm (‰), MST original data (GPX4 protein; ligand concentration 2.44141e-7 (μM)): 933.054 ‰
Fnorm (‰), MST original data (GPX4 protein; ligand concentration 4.88281e-7 (μM)): 933.313 ‰
Fnorm (‰), MST original data (GPX4 protein; ligand concentration 9.76563e-7 (μM)): 936.876 ‰
Fnorm (‰), MST original data (GPX4 protein; ligand concentration 1.95313e-6 (μM)): 940.785 ‰
Fnorm (‰), MST original data (GPX4 protein; ligand concentration 3.90625e-6 (μM)): 940.492 ‰
Fnorm (‰), MST original data (GPX4 protein; ligand concentration 7.8125e-6 (μM)): 946.829 ‰
Fnorm (‰), MST original data (GPX4 protein; ligand concentration 1.5625e-5 (μM)): 943.797 ‰
Fnorm (‰), MST original data (GPX4 protein; ligand concentration 3.125e-5 (μM)): 948.084 ‰
Fnorm (‰), MST original data (GPX4 protein; ligand concentration 6.25e-5 (μM)): 945.991 ‰
Fnorm (‰), MST original data (GPX4 protein; ligand concentration 0.000125 (μM)): 949.08 ‰
Fnorm (‰), MST original data (GPX4 protein; ligand concentration 0.00025 (μM)): 946.188 ‰
Fnorm (‰), MST original data (GPX4 protein; ligand concentration 0.0005 (μM)): 949.615 ‰
Fnorm (‰), MST original data (GPX4 protein; ligand concentration 0.001 (μM)): 948.046 ‰
intracellular Fe^2+ (FerroOrange fluorescence), pH 6.5 (EJ cells; EJ cells, pH 6.5, 40 μM, 8 h): substantially enhanced fluorescence
intracellular Fe^2+ (FerroOrange fluorescence), pH 7.4 (EJ cells; EJ cells, pH 7.4, 8 h): no remarkable fluorescence
Concentrations of Fe2+ ions (EJ cells; pH=6.5, replicate #1): 22.485 ng/104cells
Concentrations of Fe2+ ions (EJ cells; pH=6.5, replicate #2): 27.487 ng/104cells
Concentrations of Fe2+ ions (EJ cells; pH=6.5, replicate #3): 29.009 ng/104cells
Concentrations of Fe2+ ions (EJ cells; pH=7.4, replicate #1): 12.656 ng/104cells
Concentrations of Fe2+ ions (EJ cells; pH=7.4, replicate #2): 15.918 ng/104cells
Concentrations of Fe2+ ions (EJ cells; pH=7.4, replicate #3): 12.221 ng/104cells
Relative activity of GPX4 (GPX4; EJ cells, 8 h, pH 6.5, 40 μM, PBS group normalized as 1, #1): 0.12
Relative activity of GPX4 (GPX4; EJ cells, 8 h, pH 6.5, 40 μM, PBS group normalized as 1, #2): 0.09
Relative activity of GPX4 (GPX4; EJ cells, 8 h, pH 6.5, 40 μM, PBS group normalized as 1, #3): 0.17
Relative activity of GPX4 (GPX4; EJ cells, 8 h, pH 7.4, PBS group normalized as 1, #1): 0.62
Relative activity of GPX4 (GPX4; EJ cells, 8 h, pH 7.4, PBS group normalized as 1, #2): 0.73
Relative activity of GPX4 (GPX4; EJ cells, 8 h, pH 7.4, PBS group normalized as 1, #3): 0.69
Relative activity of GPX4 (GPX4; pH=6.5, replicate #1): 0.21
Relative activity of GPX4 (GPX4; pH=6.5, replicate #2): 0.24
Relative activity of GPX4 (GPX4; pH=6.5, replicate #3): 0.19
Relative activity of GPX4 (GPX4; pH=7.4, replicate #1): 0.76
Relative activity of GPX4 (GPX4; pH=7.4, replicate #2): 0.63
Relative activity of GPX4 (GPX4; pH=7.4, replicate #3): 0.6
